Data taken from article PMC4637903.

How the values were obtained:
Details in all cases: parent: 1.0
[1] = molecular target: wild-type β4 integrin (co-immunoprecipitations from transfected cells) (UniProt P16144); assay: co-immunoprecipitation (IP: Myc (β4)) and Western blot, densitometry
[2] = molecular target: wild-type β4 integrin (co-immunoprecipitations from transfected cells) (UniProt P16144); assay: co-immunoprecipitation (IP: β4) and Western blot, densitometry
[3] = molecular target: wild-type FAK (co-immunoprecipitations from transfected cells); assay: co-immunoprecipitation (IP: Myc (β4)) and Western blot, densitometry

Sequence of UniProt P16144 (P16144 28-1822): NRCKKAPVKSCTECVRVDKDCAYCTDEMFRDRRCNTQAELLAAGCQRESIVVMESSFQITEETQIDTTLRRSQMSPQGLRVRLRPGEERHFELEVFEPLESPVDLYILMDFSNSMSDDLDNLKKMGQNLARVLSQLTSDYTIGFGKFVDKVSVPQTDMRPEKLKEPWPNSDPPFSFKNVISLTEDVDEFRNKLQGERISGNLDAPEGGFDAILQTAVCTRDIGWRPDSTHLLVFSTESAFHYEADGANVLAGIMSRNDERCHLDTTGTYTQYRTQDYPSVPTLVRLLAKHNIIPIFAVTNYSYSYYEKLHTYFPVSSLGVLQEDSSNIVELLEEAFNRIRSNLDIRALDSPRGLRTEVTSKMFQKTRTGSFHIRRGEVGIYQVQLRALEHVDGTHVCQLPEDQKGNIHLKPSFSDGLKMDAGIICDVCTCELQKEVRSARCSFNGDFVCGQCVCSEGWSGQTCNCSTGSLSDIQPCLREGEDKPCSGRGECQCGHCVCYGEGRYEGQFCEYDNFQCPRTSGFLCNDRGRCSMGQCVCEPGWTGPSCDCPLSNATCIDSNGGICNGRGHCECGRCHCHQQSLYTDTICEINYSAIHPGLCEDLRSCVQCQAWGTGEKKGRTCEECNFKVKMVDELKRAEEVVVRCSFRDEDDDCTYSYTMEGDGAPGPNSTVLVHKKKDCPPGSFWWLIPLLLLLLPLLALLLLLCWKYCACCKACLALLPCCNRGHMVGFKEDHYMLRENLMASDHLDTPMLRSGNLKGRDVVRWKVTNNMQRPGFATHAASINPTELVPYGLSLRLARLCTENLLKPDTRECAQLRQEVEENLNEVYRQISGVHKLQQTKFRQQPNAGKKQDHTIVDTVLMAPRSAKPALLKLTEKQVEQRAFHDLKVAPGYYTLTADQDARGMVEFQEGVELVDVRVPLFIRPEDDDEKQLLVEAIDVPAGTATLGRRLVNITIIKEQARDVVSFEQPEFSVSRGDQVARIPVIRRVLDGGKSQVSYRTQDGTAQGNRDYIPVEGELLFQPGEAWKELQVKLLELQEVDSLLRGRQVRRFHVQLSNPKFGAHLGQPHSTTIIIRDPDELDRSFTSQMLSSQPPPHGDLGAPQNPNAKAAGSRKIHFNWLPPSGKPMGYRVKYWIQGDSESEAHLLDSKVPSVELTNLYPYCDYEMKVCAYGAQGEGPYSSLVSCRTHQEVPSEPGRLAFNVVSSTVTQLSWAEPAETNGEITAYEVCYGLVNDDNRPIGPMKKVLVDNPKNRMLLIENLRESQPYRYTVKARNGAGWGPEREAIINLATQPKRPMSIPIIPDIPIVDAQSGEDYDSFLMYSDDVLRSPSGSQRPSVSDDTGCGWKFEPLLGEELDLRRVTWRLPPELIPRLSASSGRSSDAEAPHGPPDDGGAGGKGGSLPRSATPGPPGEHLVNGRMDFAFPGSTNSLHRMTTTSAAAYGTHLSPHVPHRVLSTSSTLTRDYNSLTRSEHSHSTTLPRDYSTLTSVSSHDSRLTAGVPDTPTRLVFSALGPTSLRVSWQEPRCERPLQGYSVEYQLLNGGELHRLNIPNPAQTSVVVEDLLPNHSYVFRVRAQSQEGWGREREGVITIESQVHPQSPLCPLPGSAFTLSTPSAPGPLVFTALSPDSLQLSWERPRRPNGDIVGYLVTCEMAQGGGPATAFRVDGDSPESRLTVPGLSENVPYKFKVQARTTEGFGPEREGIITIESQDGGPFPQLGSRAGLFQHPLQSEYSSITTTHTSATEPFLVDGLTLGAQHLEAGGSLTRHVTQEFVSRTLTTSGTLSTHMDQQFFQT

Substance “wild-type FAK (co-immunoprecipitations from transfected cells) E380A” has a ratio to parent [1] of 0.3.
In the case of “wild-type FAK (co-immunoprecipitations from transfected cells) E380A; K381A; Q382A”, the ratio to parent [2] is reported as 0.2.
Substance “wild-type FAK (co-immunoprecipitations from transfected cells) G383A” has a ratio to parent [1] of 1.2.
In the case of “wild-type FAK (co-immunoprecipitations from transfected cells) K381A”, the ratio to parent [1] is reported as 0.3.
“wild-type FAK (co-immunoprecipitations from transfected cells) N379A” gave a ratio to parent [1] of 1.4.
“wild-type FAK (co-immunoprecipitations from transfected cells) Q382A” gave a ratio to parent [1] of 0.3.
In the case of “wild-type FAK (co-immunoprecipitations from transfected cells) R385A”, the ratio to parent [1] is reported as 0.5.
“wild-type FAK (co-immunoprecipitations from transfected cells) R385A; S386A” was tested, and the ratio to parent [2] was 0.7.
In the case of “wild-type FAK (co-immunoprecipitations from transfected cells) S386A”, the ratio to parent [1] is reported as 1.2.
In the case of “wild-type β4 integrin (co-immunoprecipitations from transfected cells) (from UniProt P16144) Y1422F”, the ratio to parent [3] is reported as 1.1.
“wild-type β4 integrin (co-immunoprecipitations from transfected cells) (from UniProt P16144) Y1440F” was tested, and the ratio to parent [3] was 1.4.
In the case of “wild-type β4 integrin (co-immunoprecipitations from transfected cells) (from UniProt P16144) Y1494F”, the ratio to parent [3] is reported as 1.1.
For “wild-type β4 integrin (co-immunoprecipitations from transfected cells) (from UniProt P16144) Y1526F”, the ratio to parent [3] was 0.5.
In the case of “wild-type β4 integrin (co-immunoprecipitations from transfected cells) (from UniProt P16144) Y1642F”, the ratio to parent [3] is reported as 0.3.
